Experimental data: patent publication US20240116985A1 (published 2024)
Starred links: 1 amine or outer side, 2 acyl side, 3 side chain; linkers in the order of their positions; H or OH if unused. Positions of bridges follow the written chain, without caps; N, C: chain ends. Non-standard residues stand in square brackets, D forms with d. Primed or numbered codes have the meaning given here. *: point of attachment. PyrS2″ = (S)-3-amino-1-((pent-4-en-1-yloxy)carbonyl)pyrrolidine-3-carboxylic acid (stapling residue), C=CCCCOC(=O)N1CC[C@@](N[*:1])(C(=O)[*:2])C1; PyrS3″ = (S)-3-amino-1-((hex-5-en-1-yloxy)carbonyl)pyrrolidine-3-carboxylic acid (stapling residue), C=CCCCCOC(=O)N1CC[C@@](N[*:1])(C(=O)[*:2])C1; PyrS2 = (S)-3-amino-1-((pent-4-en-1-yloxy)carbonyl)pyrrolidine-3-carboxylic acid, C=CCCCOC(=O)N1CC[C@@](N[*:1])(C(=O)[*:2])C1; PyrS3 = (S)-3-amino-1-((hex-5-en-1-yloxy)carbonyl)pyrrolidine-3-carboxylic acid, C=CCCCCOC(=O)N1CC[C@@](N[*:1])(C(=O)[*:2])C1; B5(7) = 2-amino-2-(pent-4-en-1-yl)hept-6-enoic acid, two olefinic side chains, C=CCCCC(CCCC=C)(N[*:1])C(=O)[*:2]; 4MePipBz = 4-((4-methylpiperazin-1-yl)methyl)benzoyl on Lys side chain, CN1CCN(Cc2ccc(C(=O)*)cc2)CC1; 35CF3PhPr = 3-(3,5-bis(trifluoromethyl)phenyl)propanoyl, O=C(CCc1cc(C(F)(F)F)cc(C(F)(F)F)c1)*; B5(3) = 2,2-bis(4-pentenyl)glycine (stitching residue), C=CCCCC(CCCC=C)(N[*:1])C(=O)[*:2]; Me3AdamantC = 3,5,7-trimethyladamantane-1-carbonyl, CC12CC3(C)CC(C)(C1)CC(C(=O)*)(C2)C3; MeMorphBz = 4-(morpholinomethyl)benzoyl on Lys side chain, O=C(c1ccc(CN2CCOCC2)cc1)*; B5 = 2-amino-2-(pent-4-en-1-yl)hept-6-enoic acid, C=CCCCC(CCCC=C)(N[*:1])C(=O)[*:2]; 22PhPr = 2,2-diphenylpropanoyl on Lys side chain, CC(C(=O)*)(c1ccccc1)c1ccccc1; Propanoyl(3-(1-naphthyl)) = O=C(CCc1cccc2ccccc12)*; Bta = N[C@@H](Cc1csc2ccccc12)C(=O)O; αAllylPro = C=CC[C@@]1(C(=O)O)CCCN1; Morpholinoacetyl = O=C(CN1CCOCC1)*; tBuAla = CC(C)(C)C[C@H](N)C(=O)O; 3Thi = N[C@@H](Cc1ccsc1)C(=O)O; AdamantC = not defined here; PyrS2(4) = not defined here; Octanoyl = CCCCCCCC(=O)*; Butyryl = CCCC(=O)*

T1: B-cat-Halo (beta-catenin HaloTag NanoBRET construct expressed in HEK293 cells) (UniProt P35222 1-781)
T1 sequence (looked up): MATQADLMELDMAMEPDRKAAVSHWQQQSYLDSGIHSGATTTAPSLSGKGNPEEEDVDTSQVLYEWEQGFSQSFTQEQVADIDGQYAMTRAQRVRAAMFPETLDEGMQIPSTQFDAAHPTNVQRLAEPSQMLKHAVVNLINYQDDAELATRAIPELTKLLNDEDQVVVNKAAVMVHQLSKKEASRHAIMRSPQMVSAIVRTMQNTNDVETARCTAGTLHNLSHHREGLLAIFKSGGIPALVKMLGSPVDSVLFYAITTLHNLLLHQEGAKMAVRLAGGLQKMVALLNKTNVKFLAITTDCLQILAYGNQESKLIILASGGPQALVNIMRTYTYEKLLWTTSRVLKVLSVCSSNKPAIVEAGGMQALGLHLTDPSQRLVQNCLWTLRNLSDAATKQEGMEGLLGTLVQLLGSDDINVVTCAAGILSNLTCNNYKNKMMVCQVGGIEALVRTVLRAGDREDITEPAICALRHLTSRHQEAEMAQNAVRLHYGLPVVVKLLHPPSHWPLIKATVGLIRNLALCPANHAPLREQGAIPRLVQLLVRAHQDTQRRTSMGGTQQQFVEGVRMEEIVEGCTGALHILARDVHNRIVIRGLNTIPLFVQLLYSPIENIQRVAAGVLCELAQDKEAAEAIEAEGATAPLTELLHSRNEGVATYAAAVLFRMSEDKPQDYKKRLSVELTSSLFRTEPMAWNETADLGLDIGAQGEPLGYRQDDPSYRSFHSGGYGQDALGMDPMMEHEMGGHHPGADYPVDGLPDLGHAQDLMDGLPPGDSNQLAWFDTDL

T2: B-cat-Halo (beta-catenin HaloTag fusion expressed in HEK293 cells) (Homo sapiens (Human), UniProt P35222 1-781)
T2 sequence: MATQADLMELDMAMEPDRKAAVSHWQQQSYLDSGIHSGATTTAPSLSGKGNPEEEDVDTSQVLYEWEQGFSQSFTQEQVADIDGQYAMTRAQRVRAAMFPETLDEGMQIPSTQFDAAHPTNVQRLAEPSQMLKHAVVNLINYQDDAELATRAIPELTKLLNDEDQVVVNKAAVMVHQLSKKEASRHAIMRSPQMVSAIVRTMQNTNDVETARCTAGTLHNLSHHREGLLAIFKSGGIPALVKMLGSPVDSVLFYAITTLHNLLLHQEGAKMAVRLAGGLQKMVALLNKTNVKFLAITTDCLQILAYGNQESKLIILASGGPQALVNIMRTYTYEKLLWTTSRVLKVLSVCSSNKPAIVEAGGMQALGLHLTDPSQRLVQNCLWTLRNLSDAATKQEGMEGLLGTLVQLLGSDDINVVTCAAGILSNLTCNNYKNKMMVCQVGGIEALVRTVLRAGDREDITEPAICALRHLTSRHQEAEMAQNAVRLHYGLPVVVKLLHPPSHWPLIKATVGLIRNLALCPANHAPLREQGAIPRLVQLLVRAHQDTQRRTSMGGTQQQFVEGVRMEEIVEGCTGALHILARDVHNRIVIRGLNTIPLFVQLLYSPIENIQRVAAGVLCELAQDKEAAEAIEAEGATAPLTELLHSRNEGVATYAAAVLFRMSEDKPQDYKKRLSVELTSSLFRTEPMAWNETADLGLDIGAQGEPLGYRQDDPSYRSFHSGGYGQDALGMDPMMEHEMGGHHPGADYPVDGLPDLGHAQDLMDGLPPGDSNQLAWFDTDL


molecular target: T1, B-cat-Halo (beta-catenin HaloTag …); test: cell-based or functional assay

NanoBRET Abs IC50 | Binder
> 20 µM | Ac-[αAllylPro]D[tBuAla][B5(3)]DDAK(AdamantC)FN[PyrS2(4)][3Thi][Bta]Q-NH2 (staple 1-4, 4-11; reading uncertain) [I-899]
> 20 µM | Ac-[αAllylPro]D[tBuAla][B5(3)]DDAK(Me3AdamantC)FN[PyrS2][3Thi][Bta]Q-NH2 (staple 1-4, 4-11) [I-900]
20 µM | Ac-[αAllylPro]D[tBuAla][B5(3)]DDAAFN[PyrS2″][3Thi][Bta]QK(22PhPr)-NH2 (staple 1-4, 4-11) [I-904]
31.6 µM | Ac-[αAllylPro]D[tBuAla][B5(3)]DDAAFN[PyrS2″][3Thi][Bta]QK(Morpholinoacetyl)-NH2 (staple 1-4, 4-11) [I-905]
7.8 µM | Ac-[αAllylPro]D[tBuAla][B5(3)]DDAAFN[PyrS2″][3Thi][Bta]QK(Propanoyl(3-(1-naphthyl)))-NH2 (staple 1-4, 4-11) [I-903]
21.2 µM | Ac-[αAllylPro]D[tBuAla][B5(3)]DDAAFN[PyrS2][3Thi][Bta]QK(35CF3PhPr)-NH2 (staple 1-4, 4-11) [I-902]

Further lines, the binder ahead of its results:

Binder | NanoBRET Abs IC50
Ac-[αAllylPro]D[tBuAla][B5(3)]DDAK(Butyryl)FN[PyrS2][3Thi][Bta]Q-NH2 (staple 1-4, 4-11) [I-897] | > 20 µM
Ac-[αAllylPro]D[tBuAla][B5(3)]DDAK(MeMorphBz)FN[PyrS2″][3Thi][Bta]Q-NH2 (staple 1-4, 4-11) [I-890] | > 20 µM
Ac-[αAllylPro]D[tBuAla][B5(3)]DDAK(4MePipBz)FN[PyrS2″][3Thi][Bta]Q-NH2 (staple 1-4, 4-11) [I-889] | > 20 µM
Ac-[αAllylPro]D[tBuAla][B5(3)]DDAK(Octanoyl)FN[PyrS2][3Thi][Bta]Q-NH2 (staple 1-4, 4-11; not fully specified) [I-898] | > 20 µM
Ac-[αAllylPro]D[tBuAla][B5(3)]DDAK(mPEG2)FN[PyrS2][3Thi][Bta]Q-NH2 (staple 1-4, 4-11; not fully specified) [I-892] | > 20 µM

molecular target: T2, B-cat-Halo (beta-catenin HaloTag fusion …); test: cell-based or functional assay

NanoBRET % inh @ 10 uM | NanoBRET IC50 | NanoBRET Abs IC50 | Binder
53% | 7.7 µM | – | Ac-[αAllylPro]D[tBuAla][B5]DDAAFN[PyrS2″][3Thi][Bta]Q[dA]-NH2 (staple 1-4, 4-11) [I-822]
– | – | 16.9 µM | Ac-[αAllylPro]D[tBuAla][B5(3)]DNAAFN[PyrS2″][3Thi][Bta]Q-NH2 (staple 1-4, 4-11) [I-836]
27.6% | – | – | Ac-[αAllylPro]D[tBuAla][B5(3)]DDAAFN[PyrS3″][3Thi][Bta]N[dA]-NH2 (staple 1-4, 4-11) [I-835]
32.4% | – | – | Ac-[αAllylPro]D[tBuAla][B5(7)]DDAAFN[PyrS3][3Thi][Bta]Q[dA]-NH2 (staple 1-4, 4-11) [I-831]
37.5% | > 10 µM | – | Ac-[αAllylPro]D[tBuAla][B5(7)]DDAAFN[PyrS2][3Thi][Bta]H[dA]-NH2 (staple 1-4, 4-11) [I-823]
